The record followed here is patent publication US20180086841A1 (Merck Sharp & Dohme, published 2018).

Common to all, as to experiment: flow cytometry on CHO-K1 transfectants, right sub-column
A general note: A flow cytometer gives signals particle by particle.

In one assay the target is T1, Q15A.
T1 construct: also called hCD27 Q15A
T1 receptor chain: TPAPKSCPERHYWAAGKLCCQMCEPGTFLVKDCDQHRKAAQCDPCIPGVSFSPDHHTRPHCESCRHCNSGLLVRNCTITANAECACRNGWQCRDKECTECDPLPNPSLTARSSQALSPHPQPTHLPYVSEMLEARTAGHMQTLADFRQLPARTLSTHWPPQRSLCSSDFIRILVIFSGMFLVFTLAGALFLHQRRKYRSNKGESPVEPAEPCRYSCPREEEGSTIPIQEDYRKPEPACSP

A further assay deals with T2, K17A.
T2 construct: also called hCD27 K17A
T2 receptor chain: T1 receptor chain with A15Q, K17A

Another assay concerns the target T3, P44A.
T3 construct: also called hCD27 P44A
T3 receptor chain: T1 receptor chain with A15Q, P44A

The target of the next assay is T4, I46A.
T4 construct: also called hCD27 I46A
T4 receptor chain: T1 receptor chain with A15Q, I46A

A further assay concerns the target T5, V49A.
T5 construct: also called hCD27 V49A
T5 receptor chain: T1 receptor chain with A15Q, V49A

For a further assay, the target named is T6, H60A.
T6 construct: also called hCD27 H60A
T6 receptor chain: T1 receptor chain with A15Q, H60A

Another assay addresses T7, S63A.
T7 construct: also called hCD27 S63A
T7 receptor chain: T1 receptor chain with A15Q, S63A

The target of the next assay is T8, R93A.
T8 construct: also called hCD27 R93A
T8 receptor chain: T1 receptor chain with A15Q, R93A

The next assay has as its target T9, E9A.
T9 construct: also called hCD27 E9A
T9 receptor chain: T1 receptor chain with E9A, A15Q

Another assay addresses T10, W13A.
T10 construct: also called hCD27 W13A
T10 receptor chain: T1 receptor chain with W13A, A15Q

Residue numbers refer to the chain shown, from its start.

Description for E9A: (§1) The hCD27 variants that were tested are listed. Amino acids correspond to the UniProt P26842-1 sequence. Amino acids 1-20 constitute the signal peptide. Binding is expressed as the geometric mean of the FITC signal, relative to antibody binding to hCD27, which was set at 100%.
(§2) The ability of several anti-hCD27 antibodies to bind to a series of hCD27 alanine mutants was determined using CHO-K1 cells, transiently transfected pCI-neo empty vector, pCI-neo.hCD27 and several pCI-neo.CD27Ala mutant constructs.
(§3) Detached cells were transferred to 96 wells round-bottomed well plates at approximately 1.2×10⁵ cells/well. After spinning down the cells, discarding the supernatants and re-suspending the cells in the residual volume, the primary antibodies were added and incubated for 30 minutes at 4° C. Cells were washed three times with DPBS/BSA 1%, followed by centrifugation, discarding of the supernatants and re-suspension in the residual volume. […] After washing once, antibody binding was detected using the HTS plate reader (FACS Canto II) and FlowJo software for data analysis. Debris, dead cells and doublets were excluded from the analysis. Binding was expressed as the geometric mean of the FITC signal, relative to antibody binding to hCD27, which was set at 100%.
Description for H60A: as §1, §2, §3
Description for I46A: as §1, §2, §3
Description for K17A: as §1, §2, §3
Description for P44A: as §1, §2, §3
Description for Q15A: as §1, §2, §3
Description for R93A: as §1, §2, §3
Description for S63A: as §1, §2, §3
Description for V49A: as §1, §2, §3
Description for W13A: as §1, §2, §3

B1: hCD27.131A (mouse parental 131A) (antibody, mouse IgG1, V domains shown)
VH: QIQLVQSGPELKKPGETVKISCKASGYTFTNYGMNWVKQAPGKGLKWMGWINTNTGEPTYAEEFKGRFAFSLETSATTAYLQINNLKNEDTATYFCAREGDAMDYWGQGTSVTVSS
VL: QIVLTQSPAIMSASPGEKVTMTCSASSSVSYMHWYQQKSGTSPKRWIYDTSKLASGVPARFSGSGSGTSYSLTISSMEAEDAATYYCQQWNSYPFTFGSGTKLEIK
notes: Mouse IgG1 antibody; also called mouse hCD27.131A
Regarding B1, the “binding, WT hCD27 = 100 (GM FITC)” value came to 136% with Q15A; 126% with K17A; 91% with P44A; 75% with I46A; 99.8% in the assay with V49A; 129% in the assay with H60A. The “binding, WT hCD27 = 100 (GM FITC)” value was 141% with S63A, 90% in the assay with R93A, 132% with E9A and 88.6% with W13A.
